Results as given in the supplement of paper PMC10065799, “High-throughput profiling of sequence recognition by tyrosine kinases and SH2 domains using bacterial peptide display” (eLife, 2023).

Experiments:
[1] = target: c-Src SH2; assay: SH2 binding enrichment of the phosphorylated peptide, bacterial display (enrichment ratio); higher = better substrate or ligand; peptides without Tyr show the background
[2] = target: SHP2-C SH2; assay: as above
[3] = target: Grb2 SH2 (UniProt P62993); assay: as above
[4] = test system: c-Src; assay: phosphorylation enrichment, bacterial display (enrichment ratio); higher = better substrate or ligand; peptides without Tyr show the background
[5] = target: EPHB2 (UniProt P29323); assay: as above
[6] = target: FGFR1 (UniProt P11362); assay: as above
[7] = target: Fes (UniProt P07332); assay: as above
[8] = test system: Fer (mouse); assay: as above
[9] = test system: c-Abl (mouse); assay: as above
[10] = target: FGFR3 (UniProt P22607); assay: as above
[11] = target: Jak2 (UniProt O60674); assay: as above
[12] = target: EPHB1 (UniProt P54762); assay: as above
[13] = target: MERTK (UniProt Q12866); assay: as above
[14] = test system: AncSZ; assay: as above
[15] = target: Hck (UniProt P08631); assay: as above
[16] = target: Fyn (UniProt P06241); assay: as above
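Throughout, for SH2 binding enrichment of the phosphorylated peptide, bacterial display: peptide library displayed on the E. coli surface as eCPX fusions, selected cells deep-sequenced, score is each peptide's frequency after selection divided by its frequency in the input.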
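Throughout, for phosphorylation enrichment, bacterial display: 11-residue human phosphosite peptides and single-mutation variants displayed on the E. coli surface, counted by deep sequencing, each peptide's frequency after selection divided by its frequency in the unselected input library; frequency after pTyr selection over input frequency; kinase dosed for 20-30% of maximal phosphorylation in three min.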

Hck, sequence (P08631 whole entry, looked up): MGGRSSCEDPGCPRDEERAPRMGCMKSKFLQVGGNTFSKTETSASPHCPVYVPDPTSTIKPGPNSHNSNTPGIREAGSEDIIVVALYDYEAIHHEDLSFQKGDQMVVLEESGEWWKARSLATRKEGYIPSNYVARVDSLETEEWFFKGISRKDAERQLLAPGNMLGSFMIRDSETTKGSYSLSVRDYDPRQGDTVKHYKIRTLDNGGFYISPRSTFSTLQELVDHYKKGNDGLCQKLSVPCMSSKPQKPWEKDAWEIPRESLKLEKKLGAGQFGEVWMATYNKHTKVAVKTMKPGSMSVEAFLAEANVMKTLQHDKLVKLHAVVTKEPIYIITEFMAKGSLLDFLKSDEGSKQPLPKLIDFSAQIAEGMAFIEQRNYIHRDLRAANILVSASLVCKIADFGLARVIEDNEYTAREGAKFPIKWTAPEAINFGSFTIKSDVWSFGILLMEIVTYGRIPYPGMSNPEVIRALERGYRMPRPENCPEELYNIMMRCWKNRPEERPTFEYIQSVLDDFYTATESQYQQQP
EPHB2, sequence (P29323 whole entry, looked up): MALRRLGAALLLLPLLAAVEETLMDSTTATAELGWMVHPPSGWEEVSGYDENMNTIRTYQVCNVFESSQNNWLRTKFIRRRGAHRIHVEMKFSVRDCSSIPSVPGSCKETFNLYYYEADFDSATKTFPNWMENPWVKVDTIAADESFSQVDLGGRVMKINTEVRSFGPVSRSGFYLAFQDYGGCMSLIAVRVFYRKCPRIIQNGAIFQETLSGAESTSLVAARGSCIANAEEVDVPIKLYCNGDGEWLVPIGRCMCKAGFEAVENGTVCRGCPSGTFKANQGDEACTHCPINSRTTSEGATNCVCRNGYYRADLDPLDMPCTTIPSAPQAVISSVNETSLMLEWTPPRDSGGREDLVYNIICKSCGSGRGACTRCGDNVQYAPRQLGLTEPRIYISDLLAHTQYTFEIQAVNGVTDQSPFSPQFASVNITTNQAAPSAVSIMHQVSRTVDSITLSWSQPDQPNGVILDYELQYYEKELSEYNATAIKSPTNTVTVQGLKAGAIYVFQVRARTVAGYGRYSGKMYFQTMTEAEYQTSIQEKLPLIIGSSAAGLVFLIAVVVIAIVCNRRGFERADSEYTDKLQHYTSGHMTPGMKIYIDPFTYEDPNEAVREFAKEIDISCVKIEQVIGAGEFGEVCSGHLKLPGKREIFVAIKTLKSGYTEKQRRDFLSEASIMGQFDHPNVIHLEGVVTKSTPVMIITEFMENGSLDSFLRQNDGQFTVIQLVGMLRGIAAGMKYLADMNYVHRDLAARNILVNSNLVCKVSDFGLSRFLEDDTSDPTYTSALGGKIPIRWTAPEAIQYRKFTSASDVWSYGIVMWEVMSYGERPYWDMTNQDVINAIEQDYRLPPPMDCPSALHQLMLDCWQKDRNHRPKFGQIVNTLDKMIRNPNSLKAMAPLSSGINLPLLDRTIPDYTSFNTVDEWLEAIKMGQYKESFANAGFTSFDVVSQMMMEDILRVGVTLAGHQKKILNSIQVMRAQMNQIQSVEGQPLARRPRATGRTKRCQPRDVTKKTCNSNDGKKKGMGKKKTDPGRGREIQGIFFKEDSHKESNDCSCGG
Jak2, sequence (O60674 whole entry, looked up): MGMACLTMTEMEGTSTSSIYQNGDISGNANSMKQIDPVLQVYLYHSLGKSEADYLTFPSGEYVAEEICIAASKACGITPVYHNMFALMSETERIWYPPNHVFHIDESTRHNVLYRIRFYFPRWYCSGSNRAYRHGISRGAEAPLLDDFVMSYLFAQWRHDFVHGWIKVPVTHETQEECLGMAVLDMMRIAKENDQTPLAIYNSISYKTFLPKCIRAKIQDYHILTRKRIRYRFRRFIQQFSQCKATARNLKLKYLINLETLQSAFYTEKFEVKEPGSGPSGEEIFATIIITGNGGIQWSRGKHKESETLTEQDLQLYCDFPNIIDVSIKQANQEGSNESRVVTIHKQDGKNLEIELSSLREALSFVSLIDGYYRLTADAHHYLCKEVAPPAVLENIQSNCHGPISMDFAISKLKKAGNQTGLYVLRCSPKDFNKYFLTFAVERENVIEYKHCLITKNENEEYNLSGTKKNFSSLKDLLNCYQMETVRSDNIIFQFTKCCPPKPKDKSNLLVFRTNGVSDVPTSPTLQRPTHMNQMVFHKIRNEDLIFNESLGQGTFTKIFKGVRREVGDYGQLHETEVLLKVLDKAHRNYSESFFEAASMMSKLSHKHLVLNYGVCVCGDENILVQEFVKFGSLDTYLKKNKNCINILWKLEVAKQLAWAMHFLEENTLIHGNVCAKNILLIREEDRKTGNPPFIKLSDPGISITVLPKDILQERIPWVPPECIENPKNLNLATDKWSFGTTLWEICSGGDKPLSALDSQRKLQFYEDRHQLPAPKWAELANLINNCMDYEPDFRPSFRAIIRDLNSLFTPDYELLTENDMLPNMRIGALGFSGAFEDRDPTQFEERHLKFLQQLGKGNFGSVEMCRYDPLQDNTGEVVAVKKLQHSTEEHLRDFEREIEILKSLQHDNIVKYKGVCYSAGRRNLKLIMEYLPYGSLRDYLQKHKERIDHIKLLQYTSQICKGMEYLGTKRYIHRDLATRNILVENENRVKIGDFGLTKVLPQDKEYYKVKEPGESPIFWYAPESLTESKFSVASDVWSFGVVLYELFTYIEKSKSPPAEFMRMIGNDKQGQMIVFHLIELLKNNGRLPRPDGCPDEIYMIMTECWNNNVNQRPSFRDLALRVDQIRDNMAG
Fyn, sequence (P06241 whole entry, looked up, the tested form may be a part): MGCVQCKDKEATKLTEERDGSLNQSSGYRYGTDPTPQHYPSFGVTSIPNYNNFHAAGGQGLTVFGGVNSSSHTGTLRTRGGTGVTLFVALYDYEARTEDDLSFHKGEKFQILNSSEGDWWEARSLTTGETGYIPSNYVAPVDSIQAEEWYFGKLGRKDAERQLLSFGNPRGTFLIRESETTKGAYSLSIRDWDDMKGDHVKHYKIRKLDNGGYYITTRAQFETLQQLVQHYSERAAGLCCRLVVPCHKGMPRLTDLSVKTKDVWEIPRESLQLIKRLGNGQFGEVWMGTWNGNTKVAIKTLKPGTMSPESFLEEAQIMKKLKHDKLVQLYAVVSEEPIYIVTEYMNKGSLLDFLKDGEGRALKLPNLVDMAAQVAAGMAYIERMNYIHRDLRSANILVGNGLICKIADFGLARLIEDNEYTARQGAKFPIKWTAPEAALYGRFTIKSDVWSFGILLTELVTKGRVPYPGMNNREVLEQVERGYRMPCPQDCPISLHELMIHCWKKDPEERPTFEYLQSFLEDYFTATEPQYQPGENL
Fes, sequence (P07332 whole entry, looked up): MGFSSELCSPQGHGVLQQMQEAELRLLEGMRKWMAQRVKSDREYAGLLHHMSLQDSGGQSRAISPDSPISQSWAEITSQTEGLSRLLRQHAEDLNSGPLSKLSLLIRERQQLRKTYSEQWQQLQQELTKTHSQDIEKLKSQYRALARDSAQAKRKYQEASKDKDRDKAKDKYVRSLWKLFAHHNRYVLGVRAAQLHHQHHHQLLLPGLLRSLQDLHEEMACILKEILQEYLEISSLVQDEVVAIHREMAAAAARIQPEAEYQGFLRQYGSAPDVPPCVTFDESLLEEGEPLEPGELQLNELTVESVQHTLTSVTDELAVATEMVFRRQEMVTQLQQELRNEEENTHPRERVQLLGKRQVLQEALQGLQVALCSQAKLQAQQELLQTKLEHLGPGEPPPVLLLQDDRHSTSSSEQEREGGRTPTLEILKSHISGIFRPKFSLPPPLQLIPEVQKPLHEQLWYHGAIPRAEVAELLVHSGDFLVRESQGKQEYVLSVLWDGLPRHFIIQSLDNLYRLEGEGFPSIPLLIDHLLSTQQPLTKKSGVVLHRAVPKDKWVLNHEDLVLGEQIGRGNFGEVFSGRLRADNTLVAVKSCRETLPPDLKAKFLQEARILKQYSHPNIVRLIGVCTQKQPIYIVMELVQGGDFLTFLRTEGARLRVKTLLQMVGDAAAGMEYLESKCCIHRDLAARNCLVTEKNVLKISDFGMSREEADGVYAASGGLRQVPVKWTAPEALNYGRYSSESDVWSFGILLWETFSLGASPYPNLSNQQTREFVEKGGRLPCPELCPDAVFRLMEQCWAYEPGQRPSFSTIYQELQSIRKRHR
MERTK, sequence (Q12866 whole entry, looked up): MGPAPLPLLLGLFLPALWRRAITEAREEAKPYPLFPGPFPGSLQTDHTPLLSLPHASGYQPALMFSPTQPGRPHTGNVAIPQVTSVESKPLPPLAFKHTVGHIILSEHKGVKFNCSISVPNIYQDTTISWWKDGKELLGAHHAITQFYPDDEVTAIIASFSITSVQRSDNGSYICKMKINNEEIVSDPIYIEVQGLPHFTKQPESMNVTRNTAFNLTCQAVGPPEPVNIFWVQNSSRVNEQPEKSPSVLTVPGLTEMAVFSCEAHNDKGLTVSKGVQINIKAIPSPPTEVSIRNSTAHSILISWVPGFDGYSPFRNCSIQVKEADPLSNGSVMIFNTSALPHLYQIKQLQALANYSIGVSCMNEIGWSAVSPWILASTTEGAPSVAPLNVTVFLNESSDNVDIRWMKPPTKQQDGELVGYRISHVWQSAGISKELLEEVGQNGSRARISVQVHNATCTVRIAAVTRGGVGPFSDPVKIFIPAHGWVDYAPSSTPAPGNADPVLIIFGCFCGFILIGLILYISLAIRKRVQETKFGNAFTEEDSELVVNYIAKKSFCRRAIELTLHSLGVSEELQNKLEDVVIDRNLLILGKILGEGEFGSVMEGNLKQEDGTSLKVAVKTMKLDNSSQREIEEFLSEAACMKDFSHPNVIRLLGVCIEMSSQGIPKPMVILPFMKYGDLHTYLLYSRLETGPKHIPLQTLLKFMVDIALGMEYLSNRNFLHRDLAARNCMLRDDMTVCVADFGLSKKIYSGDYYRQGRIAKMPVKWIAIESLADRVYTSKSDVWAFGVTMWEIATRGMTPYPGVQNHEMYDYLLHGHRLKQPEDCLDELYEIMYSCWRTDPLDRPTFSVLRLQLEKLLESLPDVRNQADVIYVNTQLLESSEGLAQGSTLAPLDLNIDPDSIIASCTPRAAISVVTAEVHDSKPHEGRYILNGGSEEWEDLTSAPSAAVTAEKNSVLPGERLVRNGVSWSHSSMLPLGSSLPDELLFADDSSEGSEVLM

Row | Sequence | SH2 binding enrichment [1] | SH2 binding enrichment [2] | SH2 binding enrichment [3] | phosphorylation enrichment [4] | phosphorylation enrichment [5] | phosphorylation enrichment [6] | phosphorylation enrichment [7] | phosphorylation enrichment [8] | phosphorylation enrichment [9] | phosphorylation enrichment [10] | phosphorylation enrichment [11] | phosphorylation enrichment [12] | phosphorylation enrichment [13] | phosphorylation enrichment [14] | phosphorylation enrichment [15] | phosphorylation enrichment [16]
1 | SEEVTYATLTF [CLEC12B_Y7] | 0.481 | 2.52 | 0.845 | 5.28 | 1.07 | 1.49 | 1.53 | 2.19 | 5.98 | 1.57 | 1.38 | 0.98 | 2.18 | 1.48 | 5.06 | 6.58
2 | EPSVDYCVVKI [CAD_Y735] | 0.684 | 1.22 | 1.11 | 0.618 | 1.95 | 2.25 | 1.11 | 1.26 | 0.774 | 1.71 | 1.1 | 2.83 | 0.529 | 1.57 | 0.664 | 0.577
3 | VFGVSYDEFRF [CFTR_Y512_I507V_YF] | 0.859 | 1.09 | 0.984 | 2.83 | 0.577 | 0.452 | 1.13 | 1.98 | 0.823 | 0.736 | 1.4 | 0.578 | 0.799 | 1.09 | 1.25 | 1.13
4 | DPHECYAKVFD [ALB_Y394] | 3.02 | 1.32 | 0.987 | 0.665 | 0.591 | 0.506 | 1.14 | 0.584 | 0.692 | 0.749 | 0.88 | 0.593 | 0.42 | 1.11 | 0.582 | 0.488
5 | EVEPTYVVLFD [ERCC4_Y577_R576T_YF] | 0.51 | 0.521 | 0.749 | 5.25 | 14.1 | 5.46 | 1.21 | 1.08 | 1.22 | 3.65 | 1.26 | 11.1 | 3.5 | 1.51 | 3.99 | 6.46
6 | FEPDAYFDLDQ [ELP5_Y302_D303Y_YF] | 0.501 | 0.499 | 0.814 | 0.584 | 0.656 | 5.04 | 1.34 | 0.648 | 0.91 | 4.43 | 1.82 | 0.678 | 0.477 | 1.52 | 0.622 | 0.598
7 | WQQQSYLGSGI [CTNNB1_Y30_D32G] | 0.499 | 0.664 | 0.858 | 0.421 | 0.469 | 0.634 | 0.61 | 0.389 | 0.521 | 0.493 | 0.544 | 0.362 | 0.357 | 0.748 | 0.471 | 0.372

Continued, in another order:

Row | SH2 binding enrichment [1] | SH2 binding enrichment [2] | SH2 binding enrichment [3] | Sequence | phosphorylation enrichment [4] | phosphorylation enrichment [5] | phosphorylation enrichment [6] | phosphorylation enrichment [7] | phosphorylation enrichment [8] | phosphorylation enrichment [9] | phosphorylation enrichment [10] | phosphorylation enrichment [11] | phosphorylation enrichment [12] | phosphorylation enrichment [13] | phosphorylation enrichment [14] | phosphorylation enrichment [15] | phosphorylation enrichment [16]
8 | 0.449 | 0.474 | 0.659 | ILTFKYLQKPM [KIT_Y547_YF] | 0.605 | 0.759 | 0.485 | 1.29 | 0.562 | 1.07 | 0.742 | 1.42 | 0.792 | 0.548 | 1.19 | 0.543 | 0.579
9 | 0.502 | 0.663 | 0.941 | EFFENYIEELK [PARP4_Y218_F215Y_YF] | 0.501 | 0.669 | 0.488 | 1.35 | 0.532 | 0.869 | 0.744 | 1.41 | 0.617 | 0.425 | 1.3 | 0.533 | 0.421
10 | 0.879 | 1.22 | 1.57 | FIGRIYLFLTK [GARS1_Y414_YF] | 0.632 | 0.632 | 0.542 | 1.45 | 0.707 | 1.31 | 0.813 | 1.38 | 0.83 | 0.586 | 1.61 | 0.564 | 0.567
11 | 0.645 | 0.842 | 0.949 | RHLQEYQDPLN [GFAP_Y349_L352P] | 0.503 | 0.739 | 0.723 | 0.959 | 0.472 | 0.753 | 0.668 | 0.878 | 0.504 | 0.576 | 0.823 | 0.517 | 0.579
12 | 1.27 | 2.11 | 1.25 | ALRHFYKLNII [ETV6_Y402_YF] | 0.439 | 0.535 | 0.462 | 1.03 | 0.502 | 0.84 | 0.628 | 0.875 | 0.522 | 0.44 | 0.828 | 0.482 | 0.471
13 | 1.03 | 0.937 | 0.962 | KNKKDYYDMYE [SLC26A3_Y526] | 0.579 | 0.738 | 6.27 | 0.851 | 0.543 | 0.579 | 4.04 | 0.67 | 1.13 | 0.408 | 1.13 | 0.73 | 0.601
14 | 1.21 | 1.57 | 1.19 | RQNQEYEILLD [KRT39_Y379] | 0.733 | 1.21 | 0.622 | 1.6 | 0.595 | 1.04 | 0.678 | 1.67 | 1.35 | 0.63 | 1.38 | 0.705 | 0.634
15 | 0.611 | 0.612 | 0.962 | SVVVLYEPPEV [TP53_Y220_P219L] | 0.701 | 11 | 0.588 | 1.15 | 5.4 | 1.19 | 0.738 | 1.06 | 4.88 | 3.56 | 1.72 | 1.42 | 0.59
16 | 0.423 | 0.655 | 1.09 | RGDTVYTVNRM [KBTBD13_Y404] | 4.93 | 0.441 | 0.824 | 1.35 | 0.83 | 1.06 | 1.21 | 0.834 | 0.825 | 0.808 | 1.05 | 1.61 | 5.2
17 | 0.407 | 0.547 | 0.707 | MLEVPYVDHNS [F10_Y384_R387H] | 0.506 | 0.51 | 0.516 | 1.42 | 0.583 | 0.817 | 0.786 | 1.24 | 0.594 | 0.424 | 1.2 | 0.618 | 0.416
